The values that follow come from paper PMC10442823.

One may read the Kd as the equilibrium constant for the complex coming apart.

For assay [1], the target named is His-tagged human FcγRIIIa (V158 allotype), extracellular domain (amino acids 17-208) (human) (UniProt P08637). Put plainly: SPR.
The target is the same in assay [2]. Put plainly: SPR; Biacore T200; His-tagged FcγRIIIa captured (40 RU) by anti-His antibody on a CM5 chip; Rituxan flowed over, HEPES-EP running buffer; KD from steady state; three independent runs. On the technique in general: SPR reads the build-up and loss of mass on a sensor chip optically.
Assay [3] deals with His-tagged human FcγRIIIa (F158 allotype), extracellular domain (amino acids 17-208) (human) (UniProt P08637). Put plainly: SPR.

Substance “mammalian cell produced rituximab (Rituxan)” came in with a Kd in assay [1] of 0.262 µM.

For “mammalian cell produced rituximab (Rituxan) (antibody)”, the Kd in assay [2] worked out at 0.263 µM.

As for “rituximab (Rx), plant-produced, co-expressed with LdOST”, the Kd in assay [1] stood at 0.013 µM; in assay [3], 0.0501 µM.

“rituximab (Rx), plant-produced, co-expressed with LmSTT3D”: the values for the equilibrium dissociation constant (Kd) in assay [1] and in assay [3] were 0.012 µM and 0.0544 µM, respectively.

On to “rituximab (Rx), plant-produced, expressed alone”, for which the dissociation constant Kd in assay [1] was determined as 0.018 µM; in assay [3], 0.0666 µM.
